Data set [1] deals with T1, von Willebrand factor A1 domain (Homo sapiens, UniProt P04275 SEQ:13-246). As to the kind of experiment: filter; DPBS, 0.1 mg/mL BSA, RT. Particulars: label: 5'-32P. The method, then:
(§1) KD values were calculated by fitting the equation y=(max/(1+K/protein))+yint using KaleidaGraph (KaleidaGraph v. 3.51, Synergy Software).

In data set [2] the target is T2, von Willebrand factor full length (Homo sapiens, UniProt P04275 SEQ:764-2813). As to the kind of experiment: filter; DPBS, 0.1 mg/mL BSA, RT. Conditions: tags: Calbiochem 681300; label: 5'-32P. The method, then: as §1
In data set [3] the target is von Willebrand factor A1 domain (human) (Homo sapiens, UniProt P04275 SEQ:13-246). As to the kind of experiment: filter; 100 nM protein. An excerpt:
When a significant positive ratio of binding of RNA in the presence of human or rabbit vWF A1 domain versus in the absence of protein was seen, the pools were cloned using the TOPO TA cloning kit (Invitrogen, Cat.# 45-0641, Carlsbad, Calif.) according to the manufacturer's instructions. Round 9 and 12 pool templates were cloned and sequenced (125 total sequences), producing 48 unique clones. All unique clones were transcribed, desalted, 5-³²P end-labeled, and assayed in a 3-point dot blot screen (no protein target control, 100 nM human vWF A1 domain (SEQ ID NO 5, FIG. 3), or 100 nM rabbit vWF A1 domain (SEQ ID NO 6, FIG. 3). The data is presented in the third and fourth columns of Table 4 below as the ratio of the fraction of the aptamer bound to the nitrocellulose in the presence of the target protein to the fraction of aptamer bound in the absence of the target protein.

Data set [4] concerns the target T1, von Willebrand factor A1 domain. Nature of the data set: filter; no binding. Particulars: label: 5'-32P.
For data set [5], the target named is T2, von Willebrand factor full length. As to the kind of experiment: filter; 26% bound at 100 nM vWF. Particulars: tags: Calbiochem 681300; label: 5'-32P. The method, then:
(§2) For KD determination, chemically synthesized aptamers were purified using denaturing polyacrylamide gel electrophoresis, 5′end labeled with γ-³²P ATP and were tested for direct binding to full length human vWF (Calbiochem Cat.# 681300, La Jolla, Calif.). An 8 point protein titration was used in the dot blot binding assay (100 nM, 30 nM, 10 nM, 3 nM, 1 nM, 300 pM, 100 pM, 0 pM)) in 1× Dulbecco's PBS containing […] (final volume of 50 uL) for 30 minutes at room temperature. KD values were calculated by fitting the equation y=(max/(1+K/protein))+yint using KaleidaGraph (KaleidaGraph v. 3.51, Synergy Software).

Data set [6] shares this target. As to the kind of experiment: filter; DPBS, 0.1 mg/mL BSA, RT. Particulars: tags: Calbiochem 681300; label: 5'-32P. The method, then: Based on this initial screen, KDs were determined for 3 of the vWF dependent binding sequences using the dot blot assay. […] A 12 point protein titration was used in the dot blot assay (300 nM, 100 nM, 30 nM, 10 nM, 3 nM, 1 nM, 300 pM, 100 pM, 30 pM, 10 pM, 3 pM, 0 pM) in 1× DPBS plus 0.1 mg/mL BSA at room temperature for 30 minutes. KD values were calculated by fitting the equation y=(max/(1+K/protein))+yint using KaleidaGraph (KaleidaGraph v. 3.51, Synergy Software).
This is another data set of the same source.

Data set [7] has the same target. As to the kind of experiment: filter; 43% bound at 100 nM. Conditions: tags: Calbiochem 681300. The method, then: as §2
For data set [8] the target is unchanged. Nature of the data set: filter; 40% bound at 100 nM. Conditions: tags: Calbiochem 681300. The method, then:
as §2

Data set [9] shares this target. As to the kind of experiment: filter; 46% bound at 100 nM. Conditions: tags: Calbiochem 681300. The method, then: as §2
For data set [10] the target is unchanged. Nature of the data set: filter; 50% bound at 100 nM. Particulars: tags: Calbiochem 681300. The method, then: as §2
The target is the same in data set [11]. Nature of the data set: cell_activity; IC90 BIPA in human platelet rich plasma. The method, then:
In order to determine the activity of aptamers on live human platelets, BIPA assays were done using freshly prepared platelet rich plasma. Blood was obtained from healthy human donors who had not taken NSAIDS for at least five days. […] Collected blood was pooled into 15 mL conical tubes and was spun at 200 g for 20 minutes. The turbid, yellow layer of platelet rich plasma (“PRP”) was withdrawn from the tubes, pooled, and set aside at room temperature. The remaining blood was spun at 2500 g for ten minutes. The clarified layer of plasma, known as platelet poor plasma (“PPP”), was withdrawn and set aside at room temperature. PRP was aliquoted into cuvettes containing stir bars at a volume of 470 uL. A sample of 500 uL of PPP was aliquoted into a cuvette and placed in the PPP reference cell of the platelet aggregometer. Samples of PRP were prewamed at 37 degrees C. in the platelet aggregometer for 3-5 minutes before being used in BIPA assays. First, the concentration of botrocetin needed to induce platelet aggregation for each individual donor was determined by titration. This concentration of botrocetin was used for the remainder of the experiment. Next, aptamer was assayed by adding titrations of aptamer (zero, 1 nM to 1000 nM) to prewarmed PRP for one minute, followed by addition of botrocetin. With platelet aggregation, an increase in amplitude of light transmission is seen (FIG. 8). The concentration at which platelet aggregation is blocked at 90% or greater after 6 minutes is reported in the final column of Table 26.

Substitutions are numbered along the chain they refer to.

Consider GGCCACACGACATTGGCGGGCGAGAGCCACGCATGGCC (mixed, 2'-OH purines, deoxy pyrimidines) [rRdY minimer SEQ 198], for which the Kd came out at 5 nM in data set [1] and 3 nM in data set [2].
As for GGAGCCACACGACATTGGCGGGCGAGAGCCACGCATGGCTCC (mixed, 2'-OH purines, deoxy pyrimidines) [rRdY minimer SEQ 192], the Kd was determined as 4 nM in [1] and 2 nM in [2].

B1: AMX201.A8 (ssRNA)
RNA: GGAGCGCACUCAGCCACGCUGUACACUGAUGUUGUAACAUGUACCCCCUGGCUGUUUCGACCUCUCUGCUAGC
modifications: 2'-F pyrimidines
B1: the binding signal in [3] is 1.82 ratio to no protein.
Turning to GGAGCCACGGGGTGGGTAGACGGCGGGTATGTGGCTCC (mixed, 2'-OH purines, deoxy pyrimidines) [rRdY minimer SEQ 180], the dissociation constant (Kd) came to 11 nM in [1] and 1 nM in data set [2].
For GGAGCCACACGACATTGGCGGGTTGTAATTACCACGCATGGCTCC (mixed, 2'-OH purines, deoxy pyrimidines) [rRdY minimer SEQ 189], in data set [2], the dissociation constant (Kd) worked out at 1 nM.
For CCAGCGGAATGAGAATGCTGATGGATTGCTCAGGTCTGCTGG (ssDNA) [DNA1 minimer SEQ 204], the binding result in [4] is recorded as “no binding”.
As to CGATCTGACTAGCGGAATGAGAATGCTGGTGGATCG (ssDNA) [DNA1 minimer SEQ 206], in [4], the binding result is recorded as “no binding”.
On to GGGACGGGGTGGGTAGACGGCGGGTATGTCCC (mixed, 2'-OH purines, deoxy pyrimidines) [rRdY minimer SEQ 183], for which the Kd in [2] is 10 nM.

B2: AMX201.D3 (ssRNA)
RNA: GGAGCGCACUCAGCCACGCCCACGUCAAAUUAUAGUCUACUUUGAUGUGCCCGUGGUUUCGACCUCUCUGCUAGC
modifications: 2'-F pyrimidines
For the molecule B2, the binding signal in data set [3] is 1.76 ratio to no protein.
Consider CCGGCCGTGCGGTGCCUCCGUCACGUUCCGUGCAGUGCCGG (mixed, 2'-OMe/deoxy composite, single PS, 3'-idT) [ARC1546], for which the Kd in [5] was 24 nM.

B3: AMX237.G6 (ssDNA)
DNA: CTACCTACGATCTGACTAGCGTGCAGTGCCTATTCCAGGCCGTGCGGTGCCTCCGTCACGCTTACTCTCATGTAGTTCC
B3: the Kd in data set [6] came out at 0.2 nM.

B4: AMX238.E9 (ssDNA)
DNA: B3 DNA with T31C, T34C, C35T, C36T
Turning to B4, the dissociation constant Kd in data set [6] stood at 0.39 nM.

B5: AMX238.H5 (ssDNA)
DNA: B3 DNA with C36T
As to B5, the Kd in [6] was 0.33 nM.
Regarding GGCGTGCAGTGCCTTCGGCCGTGCGGTGCCTCCGTCACGCC (ssDNA, 2'-OMe C30, 3'-idT) [ARC1223], the Kd in data set [5] was 36 nM.
Turning to GGCGTGCAGTGCCTTCGGCCGTGCGGTGCCTCCGUCACGCC (ssDNA, 2'-OMe at 35 (mU); 3'-idT) [ARC1228], in data set [7], the Kd is 2 nM.
On to GGCGTGCAGTGCCTTCGGCCGTGCGGTGCCTCCGTCACGCC (ssDNA, 2'-OMe at 34; 3'-idT) [ARC1227], for which the Kd in [8] was found to be 3 nM.
On the same count and under the same terms, the value for GGCGTGCAGTGCCTTCGGCCGTGCGGTGCCTCCGTCACGCC (ssDNA, 2'-OMe at 11,12,13,17,18,19; 3'-idT) [ARC1240] was 4 nM.
GGCGTGCAGTGCCTTCGGCCGTGCGGTGCCTCCGTCACGCC (ssDNA, 2'-OMe at 1; 3'-idT) [ARC1194]: the Kd in data set [9] stood at 3 nM.
In the case of GGCGTGCAGTGCCTTCGGCCGTGCGGTGCCTCCGTCACGCC (ssDNA, 2'-OMe at 11,17,18; 3'-idT) [ARC1238], the Kd in [7] came out at 2 nM.
For GGCGTGCAGTGCCTTCGGCCGTGCGGTGCCTCCGTCACGCC (ssDNA, 2'-OMe at 13; 3'-idT) [ARC1206], the Kd in [10] was 2 nM.
For the molecule GGCGTGCAGTGCCTTCGGCCGTGCGGTGCCTCCGTCACGCC (ssDNA, 5'-PEG20K-hexylamine; 3'-idT) [ARC1885], the activity in [11] is ~50 nM.
For the molecule GGCGTGCAGUGCCTTCGGCCGTGCGGTGCCTCCGTCACGCC (ssDNA, 2'-OMe at 10 (mU); 3'-idT) [ARC1203], in data set [8], the Kd turned out to be 3 nM.
For the molecule GGCGTGCAGTGCCTTCGGCCGTGCGGTGCCTCCGTCACGCC (ssDNA, 2'-OMe at 20; 3'-idT) [ARC1213], the Kd in data set [7] was 6 nM.
Regarding GGCGTGCAGTGCCTTCGGCCGTGCGGTGCCTCCGTCACGCC (ssDNA, 2'-OMe at 3; 3'-idT) [ARC1196], the Kd in data set [9] was found to be 2 nM.
On the same count and under the same terms, the value for GGCGTGCAGTGCCTTCGGCCGTGCGGTGCCTCCGTCACGCC (ssDNA, 2'-OMe at 37; 3'-idT) [ARC1230] was 3 nM.
The same measure, in the same setting: the value for GGCGTGCAGTGCCTTCGGCCGTGCGGTGCCTCCGTCACGCC (ssDNA, 2'-OMe at 4; 3'-idT) [ARC1197] was 2 nM.
As to GGCGTGCAGTGCCTTCGGCCGTGCGGTGCCTCCGTCACGCC (ssDNA, 2'-OMe at 23; 3'-idT) [ARC1216], in data set [8], the Kd was determined as 0.6 nM.
On to GGCGUGCAGUGCCUUCGGCCGTGCGGTGCCTCCGTCACGCC (mixed, 2'-OMe at 1-5, 9-19, 37-41, 3'-idT) [ARC1341], for which the Kd in data set [5] was determined as 22.5 nM.
On to GGCGTGCAGTGCCTTCGGCCGTGCGGTGCCTCCGTCACGCC (ssDNA, 2'-OMe at 28; 3'-idT) [ARC1221], for which the Kd in data set [7] was 1 nM.
Consider GGCGTGCAGTGCCTTCGGCCGTGCGGTGCCTCCGTCACGCC (ssDNA, 2'-OMe at 38; 3'-idT) [ARC1231], for which the Kd in [10] is 1 nM.
With GGCGTGCAGTGCCTTCGGCCGTGCGGTGCCTCCGTCACGCC (ssDNA, 2'-OMe at 29; 3'-idT) [ARC1222], the Kd in data set [8] was determined as 0.9 nM.
For GGCGTGCAGTGCCTTCGGCCGTGCGGTGCCTCCGTCACGCC (ssDNA, 2'-OMe at 12; 3'-idT) [ARC1205], in data set [10], the Kd turned out to be 1 nM.

B6: ARC1779 (mixed)
mixed: GCGUGCAGUGCCUUCGGCCGTGCGGTGCCUCCGUCACGC
modifications: 2'-OMe at 1-4,8-18,20,22,27,28,30,33,34,36-39, rest deoxy; PS between 20 and 21; 5'-PEG20K-hexylamine; 3'-idT
Turning to B6, the activity in [11] is ~100 nM.

B7: ARC1780 (mixed)
mixed: B6 mixed
modifications: 2'-OMe at 1-4,8-18,20,22,27,28,30,33,34,36-39, rest deoxy; PS between 20 and 21; 5'-PEG40K-hexylamine; 3'-idT [2'-OMe at 1-4,8-18,20,22,27,28,30,33,34,36-39, rest deoxy; PS between 20 and 21 (printed S left out); 5'-PEG40K-hexylamine (left out); 3'-idT at 40]
For the molecule B7, the activity in data set [11] is ~100 nM.

The record behind these values is patent US20060264369, “Aptamers to von Willebrand Factor and their use as thrombotic disease therapeutics” (published 2006).
